In US20150320860A1 (published 2015):
Numbering of substitutions follows the chain as printed.

B1: anti-ADDL antibody 19.3 (antibody, V domains shown)
VH: EVQLVESGGGLVQPGGSLRLSCAASGFTFSSFGMHWVRQAPGKGLEWVAYISRGSSTIYYADTVKGRFTISRDNAKNSLYLQMNSLRAEDTAVYYCARGITTALDYWGQGTLVTVSS
VL: DVVMTQSPLSLPVTPGEPASISCRSSQSIVHSNGNTYLEWYLQKPGQSPQLLIYKASNRFSGVPDRFSGSGSGTDFTLKISRVEAEDVGVYYCFQGSRLGPSFGQGTKLEIKR
notes: copies: 2 + 2
B2: antibody 19.3 N33T (antibody, IgG2, V domains shown)
VH: B1 VH
VL: DVVMTQSPLSLPVTPGEPASISCRSSQSIVHSTGNTYLEWYLQKPGQSPQLLIYKASNRFSGVPDRFSGSGSGTDFTLKISRVEAEDVGVYYCFQGSRLGPSFGQGTKLEIL
notes: also called 19.3T33
B3: antibody 19.3 N33S (antibody, IgG2, V domains shown)
VH: B1 VH
VL: B2 VL with T33S
notes: also called 19.3S33
B4: humanized anti-ADDL antibody h3B3 (antibody, V domains shown)
VH: B1 VH
VL: B2 VL with T33N, R98H, L99V, G100P, S102T, L112K
notes: Parental humanized antibody; also called humanized 3B3; h3B3 (parental)
B5: antibody 19.3 N33D (antibody, V domains shown)
VH: B1 VH
VL: B2 VL with T33D
notes: Made as a control

Columns and labels:
[1] = target: T1, Aβ-derived diffusible ligands (ADDLs), soluble oligomers of synthetic Aβ1-42 (UniProt P05067 672-713); test: ELISA; IgG2
T1 construct: domain: Aβ1-42; number of copies is not fixed; also called synthetic ADDLs; Aβ oligomers

Aβ1-42 monomer = target: T2, Aβ1-42 monomer (UniProt P05067 672-713); test: ELISA; IgG2
T2 construct: domain: Aβ1-42

[2] = target: T1, Aβ-derived diffusible ligands (ADDLs), …; test: competitive ELISA
Method: The plates were incubated for one and half hours at room temperature. Both detection of residual antibody binding and the EC₅₀ calculations were determined as in the one-sided ELISA assay.

[3] = target: T1, Aβ-derived diffusible ligands (ADDLs), …; test: BIACORE (SPR)
Aβ1-40 monomer [4] = target: T3, Aβ1-40 monomer (UniProt P05067 672-711); test: BIACORE (SPR)
T3 construct: domain: Aβ1-40; also called Aβ40; monomer Aβ (Aβ1-40)

[5] = target: T1, Aβ-derived diffusible ligands (ADDLs), …; test: one-sided ELISA (FIG. 7A)
Method: (§1) EC₅₀ represents the half-maximal total Aβ oligomer binding. […] Next day, plates were washed five times with PBS+0.05% TWEEN 20 and blocked overnight with casein blocking buffer (Thermo Scientific, Waltham, Mass.) and 0.05% TWEEN 20. […] After two hours at room temperature incubation, the plates were washed and alkaline phosphatase-conjugated anti-human IgG (ThermoScientific, Waltham, Mass.) was added at 0.08 μg/ml. After incubation for 45 minutes at room temperature, the plates were washed and TROPIX CDP star (Applied Biosystems, Foster City, Calif.) was added. Luminescence was detected after […] on an ENVISION plate reader (PerkinElmer, Waltham, Mass.). Curve fits were completed using GraphPad Prism (GraphPad Software, Inc., San Diego, Calif.) software.

[6] = target: T1, Aβ-derived diffusible ligands (ADDLs), …; test: KINEXA, equilibrium constant in solution
Aβ1-40 monomer [7] = target: T3, Aβ1-40 monomer; test: KINEXA, equilibrium constant in solution
[8] = target: T1, Aβ-derived diffusible ligands (ADDLs), …; test: KINEXA; constant for Aβ1-40 over constant for ADDLs
Aβ1-40 monomer [9] = target: T3, Aβ1-40 monomer; test: one-sided ELISA, Aβ1-40 coated at 100 pmol/well (FIG. 7A)
Method: as §1

[10] = target: T1, Aβ-derived diffusible ligands (ADDLs), …; test: one-sided ELISA, Aβ oligomers coated at 50 pmol/well (FIG. 7A)
Method: as §1

[11] = target: T1, Aβ-derived diffusible ligands (ADDLs), …; test: BIACORE (SPR); affinity for Aβ1-40 over affinity for ADDLs
[12] = target: T4, biotinylated ADDLs (bADDLs) (UniProt P05067 672-713, N-terminal biotin); test: ELISA on coated antigen, chemiluminescence; antibody at 0 timepoint
T4 construct: domain: Aβ1-42; Oligomer mixture; copies not fixed
Method: (§2) High protein binding plates (Costar, Corning, Lowell, Mass.), were coated with target ligand in PBS overnight at 4° C. […] One the next day, plates were washed five times with PBS+0.05% TWEEN 20 (Sigma Aldrich, St. Louis, Mo.) and blocked overnight with casein blocking buffer (Thermo Scientific, Waltham, Mass.) and 0.05% TWEEN 20. […] After 2 hours at room temperature incubation, the plates were washed and alkaline phosphatase-conjugated anti-human IgG (ThermoScientific, Waltham, Mass.) was added at 0.08 μg/ml. After 45 minutes at room temperature incubation, the plates were washed and TROPIX CDP-Star chemiluminescent substrate (LIFE TECHNOLOGIES, Carlsbad, Calif.) was added. Luminescence was detected after 30 minutes on an ENVISION microplate reader (PerkinElmer, Waltham, Mass.). Curve fits were completed using […] PRISM software (GraphPad Software, Inc., San Diego, Calif.).

Aβ1-40 monomer [13] = target: T3, Aβ1-40 monomer; test: as above
Method: as §2

[14] = target: T4, biotinylated ADDLs (bADDLs); test: ELISA on coated antigen, chemiluminescence; antibody stored at 4°, 1 month
Method: as §2

Aβ1-40 monomer [15] = target: T3, Aβ1-40 monomer; test: as above
Method: as §2

[16] = target: T4, biotinylated ADDLs (bADDLs); test: ELISA on coated antigen, chemiluminescence; antibody stored at 25°, 1 month
Method: as §2

Aβ1-40 monomer [17] = target: T3, Aβ1-40 monomer; test: as above
Method: as §2

[18] = target: T4, biotinylated ADDLs (bADDLs); test: ELISA on coated antigen, chemiluminescence; antibody stored at 40°, 1 month
Method: as §2

Aβ1-40 monomer [19] = target: T3, Aβ1-40 monomer; test: as above
Method: as §2

[20] = target: T4, biotinylated ADDLs (bADDLs); test: cell-based assay: antibody pre-incubated with 500 nM bADDLs, block of bADDL binding to primary neurons
Method: (§3) As a control, the same concentration of heat-denatured antibody (98° C. for […]) was mixed with bADDLs. The antibody-bADDL mixtures were incubated in siliconized microcentrifuge tubes (Fischer Scientific, Pittsburgh, Pa.) at 37° C. for one hour with constant end-to-end rotation at a low speed. The mixtures were then applied to primary hippocampal and/or cortical cultures and incubated at 37° C. for one hour. The incubation was terminated by removing the culture medium. Cells were subjected to fixation and post-fixation treatments. Cells were then incubated with streptavidin conjugated with alkaline phosphate (AP) at 4° C. overnight, washed five times with PBS and reacted with the TROPIX CDP-Star chemiluminescent substrate (Life Technologies, Carlsbad, Calif.) at room temperature for 30 minutes. The bADDL binding intensity was measured and recorded with an ENVISION microplate reader (PerkinElmer, Waltham, Mass.).

[21] = target: T4, biotinylated ADDLs (bADDLs); test: cell-based assay: antibody pre-incubated with 500 nM bADDLs in the presence of excess Aβ monomer, block of bADDL binding to primary neurons
Method: as §3

[22] = target: T1, Aβ-derived diffusible ligands (ADDLs), …; test: three-pronged sandwich ELISA (Aβ forms captured by polyclonal M90/1), single antibody concentration; signal on ADDLs over signal on monomer Aβ
Method: (§4) ELISA. […] Monoclonal antibodies diluted in BSA/TBS were incubated for 90 minutes at room temperature and detected with a VECTASTAIN® ABC kit to mouse IgG. The HRP label was visualized with BIO-RAD peroxidase substrate and read at 405 nm on a Dynex MRX-TC microplate reader.

[23] = target: T1, Aβ-derived diffusible ligands (ADDLs), …; test: three-pronged sandwich ELISA (Aβ forms captured by polyclonal M90/1), single antibody concentration; signal on ADDLs over signal on fibrillar Aβ
Method: as §4

Row | Binder | EC50 [1] [nM] | EC50 (Aβ1-42 monomer) [nM] | Kd (Aβ1-40 monomer [4]) [nM] | Kd (Aβ1-40 monomer [7]) [nM] | EC50 [12] [nM] | EC50 (Aβ1-40 monomer [13]) [nM] | EC50 [14] [nM] | EC50 (Aβ1-40 monomer [15]) [nM] | EC50 [16] [nM] | EC50 (Aβ1-40 monomer [17]) [nM] | EC50 [18] [nM] | EC50 (Aβ1-40 monomer [19]) [nM] | further results
1 | B1 | 0.8 | 18 | 150 | 16.7 | 1.1 | 10.1 | 1.7 | 16.3 | 2.1 | 22.1 | 5.9 | 88.8 | fold higher concentration of Aβ1-40 than of Aβ oligomers needed to displace 50% of 19.3 [2]: ~600 fold; Kd [3]: 4.8 nM; fold greater potency for Aβ oligomers than for Aβ40 monomer [5]: ~3.7 fold; Kd [6]: 2.7 nM; Ratio (Aβ monomer/ADDL) [8]: 6.2; EC50 (Aβ1-40 monomer [9]): ~4.3 nM; EC50 [10]: ~1.7 nM; Ratio (Aβ monomer/ADDL) [11]: 31; IC50 [20]: 15.4 nM; IC50 [21]: 15.3 nM; ADDL:Monomer binding ratio [22]: 2.5; ADDL:Fibrillar binding ratio [23]: 2
2 | B2 | 3.1 | 244 |  |  | 15.5 | 332 | 11.6 | 307 | 15.7 |  | 23.5 | 96.3 | 
3 | B3 | 1.7 | 150 |  |  | 7.8 | 55.1 | 8.6 | 59.1 | 12.8 | 24.3 | 10.1 | 29.9 | 
4 | B4 |  |  | 105 | 45 |  |  |  |  |  |  |  |  | 
5 | B5 | 0.82 | 28 |  |  |  |  |  |  |  |  |  |  | 
